According to patent publication US20250074946A1 (HEBEI FITNESS BIOTECHNOLOGY, published 2025):
Like-named read-outs stand apart in the source and are kept apart here.

B1: APL13 (peptide)
peptide: RSFALASSETGVG
B2: APL17 (peptide)
peptide: RSFTLASSATGVG
B3: APL8 (peptide)
peptide: IWYIQCFGCETHAML
B4: APL12 (peptide)
peptide: IWYINCFVCETHAML
B5: APL55 (peptide)
peptide: IWYINCFGCRTAAML
B6: APL21 (peptide)
peptide: MGPKGRTVIIEQSLGSPKVTK
notes: also called ALP21
B7: APL9 (peptide)
peptide: IWYISCFGCETHAML
B8: APL18 (peptide)
peptide: RSFTLASSEAGVG
B9: APL20 (peptide)
peptide: SIDLKDKKYKNIGAKLVQLVANNTNEEA
B10: APL14 (peptide)
peptide: RSFTAASSETGVG
B11: APL41 (peptide)
peptide: FKGRQAGAGE
B12: APL10 (peptide)
peptide: IWYITCFGCETHAML
B13: APL16 (peptide)
peptide: RSFTLAASETGVG
B14: APL11 (peptide)
peptide: IWYINCFACETHAML
B15: APL56 (peptide)
peptide: IWYINCFGCHTAAML
B16: FNS007 (APL2) (peptide)
peptide: FKGEQAGAGE
B17: APL60 (peptide)
peptide: RSGTLASAETGVG

What was measured:
HLA-DR1 [1] = biological target: HLA-DR1 (human); test: fluorescence polarization competition; displaces 25 nM fluorescently-labeled polypeptide from 500 nM HLA-DR1
HLA-DR1 [2] = biological target: HLA-DR1 (human); test: as above; remark: listed apart in the source

Binder	IC50 (HLA-DR1 [1]) [µM]	IC50 (HLA-DR1 [2]) [µM]
B1	5.02	–
B2	3.53	–
B3	5.47	–
B4	5.2	–
B5	–	98.8
B6	4.15	–
B7	5.09	–
B8	4.88	–
B9	3.88	–
B10	6.54	–
B11	–	88.4
B12	5.87	–
B13	5.55	–
B14	3.98	–
B15	–	69.2
B16	3.37	–
B17	–	61.7
